This note sets out measurements from article PMC7407834 (2020).

One test has as its target T1, phage clone 1 peptide (phage-displayed).
T1 chain: GHIPTCLTPMCR
The experiment in a line: ELISA.

For a further test, the target named is T2, USPIO-LRPep2 (not fully specified (N-terminus, bridges); cysteine pairing not given here; also: grafted to USPIO nanoparticle).
T2 chain: HPWCCGLRLDLR
The test is described as follows: ELISA.

Ends that are not written are not given here.

B1: LDLR 22-788 (protein)
chain: not shown
Regarding B1, the figures for the dissociation constant Kd in the test with phage clone 1 peptide and with USPIO-LRPep2 were 0.136 nM and 72.5 nM, respectively.
